Reference: US20240190996A1 (Regeneron, published 2024)

Columns and labels:
[1] = target: T1, human coagulation factor XI (hFXI), plasma-derived (ERL) (human, UniProt P03951 19-625); assay: SPR (Biacore), mAb captured on anti-hFc, antigen injected, 25C
T1 construct: also called hFXI (ERL); human FXI
Method: (§1) Then, all FXI solutions were injected on Biacore 8K at 30 μL/min for 180 seconds and dissociation was monitored for 10 minutes.

[2] = target: T1, human coagulation factor XI (hFXI), …; assay: SPR (Biacore), mAb captured on anti-hFc, antigen injected, 37C
Method: as §1

[3] = target: T2, human activated factor XI (hFXIa), plasma-derived (ERL) (human, UniProt P03951 19-387; P03951 388-625); assay: SPR (Biacore), mAb captured on anti-hFc, antigen injected, 25C
T2 construct: After cleavage each subunit is two disulfide-linked chains; also called hFXIa (ERL); human FXIa
T2 sequence (P03951 19-387 limits assumed, chain 1 of 2): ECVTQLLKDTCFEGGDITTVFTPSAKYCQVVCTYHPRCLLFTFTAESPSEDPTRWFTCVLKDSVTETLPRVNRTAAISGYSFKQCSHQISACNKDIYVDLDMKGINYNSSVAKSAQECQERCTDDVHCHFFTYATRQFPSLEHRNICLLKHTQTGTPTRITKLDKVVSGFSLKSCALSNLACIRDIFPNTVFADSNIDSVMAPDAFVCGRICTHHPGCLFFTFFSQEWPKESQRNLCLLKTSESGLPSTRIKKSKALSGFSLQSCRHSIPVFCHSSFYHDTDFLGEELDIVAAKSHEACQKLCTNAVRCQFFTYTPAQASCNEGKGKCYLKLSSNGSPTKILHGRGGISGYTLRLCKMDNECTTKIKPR
T2 sequence (P03951 388-625 limits assumed, chain 2 of 2): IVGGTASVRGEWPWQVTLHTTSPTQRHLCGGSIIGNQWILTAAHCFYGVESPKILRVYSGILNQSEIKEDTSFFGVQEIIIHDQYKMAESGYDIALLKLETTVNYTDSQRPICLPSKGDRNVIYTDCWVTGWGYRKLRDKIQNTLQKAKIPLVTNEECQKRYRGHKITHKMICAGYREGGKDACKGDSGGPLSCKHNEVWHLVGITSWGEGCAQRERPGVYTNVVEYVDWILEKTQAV
Method: as §1

[4] = target: T2, human activated factor XI (hFXIa), …; assay: SPR (Biacore), mAb captured on anti-hFc, antigen injected, 37C
Method: as §1

hFXI.mmh (REGN3848) [5] = target: T3, hFXI.mmh (REGN3848) (human, UniProt P03951 19-625); assay: SPR (Biacore), mAb captured on anti-hFc, antigen injected, 25C
T3 construct: Human FXI with a C-terminal myc-myc-hexahistidine tag; also called human FXI.mmh; recombinant human FXI
T3 sequence (P03951 other isoform, or with tags, fused parts or gaps limits assumed): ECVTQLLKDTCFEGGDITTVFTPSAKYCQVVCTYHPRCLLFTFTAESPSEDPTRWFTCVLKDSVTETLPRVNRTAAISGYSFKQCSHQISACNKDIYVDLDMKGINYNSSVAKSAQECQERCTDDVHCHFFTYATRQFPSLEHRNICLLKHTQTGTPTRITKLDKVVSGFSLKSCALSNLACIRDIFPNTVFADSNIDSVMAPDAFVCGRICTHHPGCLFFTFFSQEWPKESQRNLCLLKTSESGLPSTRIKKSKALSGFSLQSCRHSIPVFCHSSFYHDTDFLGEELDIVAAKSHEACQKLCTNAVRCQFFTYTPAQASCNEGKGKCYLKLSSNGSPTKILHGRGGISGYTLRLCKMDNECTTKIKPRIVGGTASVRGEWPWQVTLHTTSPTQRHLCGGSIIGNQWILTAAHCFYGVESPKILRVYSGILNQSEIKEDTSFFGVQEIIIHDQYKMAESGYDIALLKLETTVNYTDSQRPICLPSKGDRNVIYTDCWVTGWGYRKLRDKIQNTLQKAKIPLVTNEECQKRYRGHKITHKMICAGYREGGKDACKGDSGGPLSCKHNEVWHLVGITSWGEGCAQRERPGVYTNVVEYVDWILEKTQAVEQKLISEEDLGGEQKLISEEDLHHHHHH
Method: as §1

hFXI.mmh (REGN3848) [6] = target: T3, hFXI.mmh (REGN3848); assay: SPR (Biacore), mAb captured on anti-hFc, antigen injected, 37C
Method: as §1

mfFXI.mmh (REGN3883) [7] = target: T4, mfFXI.mmh (REGN3883) (cynomolgus monkey (Macaca fascicularis), UniProt A0A2K5VVW4 19-624); assay: SPR (Biacore), mAb captured on anti-hFc, antigen injected, 25C
T4 construct: also called monkey FXI.mmh; recombinant cynomolgus monkey FXI; not shown: mmH tag
T4 sequence (A0A2K5VVW4 entry or part of it): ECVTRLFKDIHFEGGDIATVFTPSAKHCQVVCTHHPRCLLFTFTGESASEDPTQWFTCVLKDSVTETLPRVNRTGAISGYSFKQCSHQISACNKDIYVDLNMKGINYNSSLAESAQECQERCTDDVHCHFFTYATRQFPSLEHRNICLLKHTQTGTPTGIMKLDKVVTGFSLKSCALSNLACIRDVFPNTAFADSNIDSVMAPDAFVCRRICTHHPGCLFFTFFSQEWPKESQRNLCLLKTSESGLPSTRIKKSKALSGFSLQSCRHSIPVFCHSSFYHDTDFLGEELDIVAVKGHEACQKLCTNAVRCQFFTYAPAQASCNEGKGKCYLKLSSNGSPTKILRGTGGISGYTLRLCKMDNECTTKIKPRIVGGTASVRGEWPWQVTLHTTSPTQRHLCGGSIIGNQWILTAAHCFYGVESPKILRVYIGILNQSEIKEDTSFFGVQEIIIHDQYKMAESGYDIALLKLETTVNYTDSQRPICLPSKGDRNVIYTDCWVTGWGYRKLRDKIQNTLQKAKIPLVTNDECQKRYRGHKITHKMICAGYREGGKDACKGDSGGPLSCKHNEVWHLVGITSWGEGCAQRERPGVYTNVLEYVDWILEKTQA

mfFXI.mmh (REGN3883) [8] = target: T4, mfFXI.mmh (REGN3883); assay: SPR (Biacore), mAb captured on anti-hFc, antigen injected, 37C
Method: as §1

[9] = target: T1, human coagulation factor XI (hFXI), …; assay: SPR (Biacore), mAb captured on anti-hFc, antigen injected, 25C; 25 C
Method: as §1

[10] = target: T1, human coagulation factor XI (hFXI), …; assay: SPR (Biacore), REGN7508 captured on anti-hFcG, antigen injected, 25C, pH 7.4
Method: (§2) Each concentration was tested in duplicate.
(§3) Specific binding signals were obtained by a double referencing procedure and plotted as SPR sensorgrams. […] The kinetic parameters were obtained by globally fitting these specific binding signals to a 1:1 binding model with mass transport limitation. The equilibrium dissociation constant (KD) was calculated from the ratio of the dissociation rate constant to the association rate constant (KD=kd/ka).

[11] = target: T2, human activated factor XI (hFXIa), …; assay: as above
Method: as §2, §3

hFXI.mmh (REGN3848) [12] = target: T3, hFXI.mmh (REGN3848); assay: as above
Method: as §2, §3

mfFXI.mmh (REGN3883) [13] = target: T4, mfFXI.mmh (REGN3883); assay: as above
Method: as §2, §3

mFXI.mmH = target: T5, mFXI.mmH (mouse, UniProt Q91Y47 19-624); assay: SPR (Biacore), REGN7508 captured on anti-hFcG, mFXI.mmH injected, 25C, pH 7.4
T5 construct: also called recombinant mouse FXI; not shown: mmH tag
T5 sequence (Q91Y47 19-624): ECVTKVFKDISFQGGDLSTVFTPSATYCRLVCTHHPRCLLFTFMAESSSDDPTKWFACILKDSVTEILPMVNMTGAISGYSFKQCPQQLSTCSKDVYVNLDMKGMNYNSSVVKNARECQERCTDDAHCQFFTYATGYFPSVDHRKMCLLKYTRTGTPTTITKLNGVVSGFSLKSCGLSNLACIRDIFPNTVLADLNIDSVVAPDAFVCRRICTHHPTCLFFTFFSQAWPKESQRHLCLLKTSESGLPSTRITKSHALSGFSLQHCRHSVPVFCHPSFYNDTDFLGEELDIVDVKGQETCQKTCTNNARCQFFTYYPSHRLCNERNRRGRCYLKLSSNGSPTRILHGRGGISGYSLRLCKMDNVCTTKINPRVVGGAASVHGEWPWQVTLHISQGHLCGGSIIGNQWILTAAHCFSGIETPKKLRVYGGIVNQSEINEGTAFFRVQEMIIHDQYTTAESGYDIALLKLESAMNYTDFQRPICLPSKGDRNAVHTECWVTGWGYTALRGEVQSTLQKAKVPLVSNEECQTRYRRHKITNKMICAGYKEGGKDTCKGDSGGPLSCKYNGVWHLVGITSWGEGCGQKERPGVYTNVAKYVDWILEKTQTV

rbFXI.mmH = target: T6, rbFXI.mmH (rabbit, UniProt G1SSQ6 19-623); assay: SPR (Biacore), REGN7508 captured on anti-hFcG, rbFXI.mmH injected, 25C, pH 7.4
T6 construct: also called recombinant rabbit FXI; not shown: mmH tag
T6 sequence (G1SSQ6 entry or part of it): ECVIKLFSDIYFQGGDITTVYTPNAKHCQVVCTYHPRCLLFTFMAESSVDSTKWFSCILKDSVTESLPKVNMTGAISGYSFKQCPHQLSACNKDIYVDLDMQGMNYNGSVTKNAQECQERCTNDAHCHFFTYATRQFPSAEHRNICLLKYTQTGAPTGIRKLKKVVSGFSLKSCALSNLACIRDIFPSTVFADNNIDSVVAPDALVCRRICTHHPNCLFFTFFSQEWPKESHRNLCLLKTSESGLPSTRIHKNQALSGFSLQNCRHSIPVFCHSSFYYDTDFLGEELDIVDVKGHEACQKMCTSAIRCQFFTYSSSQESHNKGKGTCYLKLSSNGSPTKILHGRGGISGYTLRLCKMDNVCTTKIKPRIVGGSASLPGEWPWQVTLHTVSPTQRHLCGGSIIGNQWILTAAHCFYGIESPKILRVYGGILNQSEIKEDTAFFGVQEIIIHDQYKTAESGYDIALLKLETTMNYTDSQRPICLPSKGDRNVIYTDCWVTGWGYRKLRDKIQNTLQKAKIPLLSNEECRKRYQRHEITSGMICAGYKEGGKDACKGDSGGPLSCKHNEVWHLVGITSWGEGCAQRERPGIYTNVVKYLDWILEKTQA

[14] = target: T1, human coagulation factor XI (hFXI), …; assay: cell-based or functional assay
[15] = target: T2, human activated factor XI (hFXIa), …; assay: cell-based or functional assay

T1 sequence (P03951 19-625): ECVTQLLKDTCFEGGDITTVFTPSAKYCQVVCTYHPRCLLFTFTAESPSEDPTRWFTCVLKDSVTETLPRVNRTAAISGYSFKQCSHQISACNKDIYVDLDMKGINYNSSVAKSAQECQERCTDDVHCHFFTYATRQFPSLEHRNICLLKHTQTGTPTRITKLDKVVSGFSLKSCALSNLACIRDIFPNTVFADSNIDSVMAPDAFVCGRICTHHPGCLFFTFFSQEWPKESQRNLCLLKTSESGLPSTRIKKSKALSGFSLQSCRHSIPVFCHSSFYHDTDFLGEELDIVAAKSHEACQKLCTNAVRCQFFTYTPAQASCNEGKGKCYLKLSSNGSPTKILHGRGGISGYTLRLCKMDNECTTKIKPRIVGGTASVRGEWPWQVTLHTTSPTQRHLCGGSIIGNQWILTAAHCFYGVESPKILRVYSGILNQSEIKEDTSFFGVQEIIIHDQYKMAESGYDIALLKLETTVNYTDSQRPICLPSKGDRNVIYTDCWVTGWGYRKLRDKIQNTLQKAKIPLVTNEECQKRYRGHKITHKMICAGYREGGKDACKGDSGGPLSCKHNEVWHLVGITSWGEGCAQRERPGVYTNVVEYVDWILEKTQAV

B1: REGN7508 (antibody, human IgG4 S228P, kappa, V domains shown)
VH: QVQLVESGGGLVKPGGSLRLSCAASGFTFSDYSMNWIRQAPGKGLEWISYISFSGNSIYYADSVKGRFTISRDNAKNSLYLQMNSLRVEDTAIYYCTSRDWGYAFDIWGQGTMVTVSS
VL: DIQMTQSPSFLSASLGDRVTITCQASQDISNYLNWYQVKPGKAPKLLIYDASNLETGVPSRFSGSGSGTDFTFTISSLQPEDIATYFCQQYDNLPYIFGQGTKLEIKR
notes: also called Subject mAb [REGN7508]; subject anti-FXI mAb
koff [1]: ≤ 1e-05 s⁻¹
kon [1]: 2.2e+06 M⁻¹ s⁻¹
t½ [1]: ≥ 19.2 h
Kd [2]: ≤ 3.09 pM
koff [2]: ≤ 1e-05 s⁻¹
kon [2]: 3.24e+06 M⁻¹ s⁻¹
t½ [2]: ≥ 19.2 h
Kd [3]: ≤ 31.1 pM
koff [3]: ≤ 1e-05 s⁻¹
kon [3]: 321000 M⁻¹ s⁻¹
t½ [3]: ≥ 19.2 h
Kd [4]: 256 pM
koff [4]: 0.000121 s⁻¹
kon [4]: 475000 M⁻¹ s⁻¹
t½ [4]: 1.58 h
Kd (hFXI.mmh (REGN3848) [5]): ≤ 5.34 pM
koff (hFXI.mmh (REGN3848) [5]): ≤ 1e-05 s⁻¹
kon (hFXI.mmh (REGN3848) [5]): 1.87e+06 M⁻¹ s⁻¹
t½ (hFXI.mmh (REGN3848) [5]): ≥ 19.2 h
Kd (hFXI.mmh (REGN3848) [6]): 32.6 pM
koff (hFXI.mmh (REGN3848) [6]): 8.86e-05 s⁻¹
kon (hFXI.mmh (REGN3848) [6]): 2.71e+06 M⁻¹ s⁻¹
t½ (hFXI.mmh (REGN3848) [6]): 2.17 h
Kd (mfFXI.mmh (REGN3883) [7]): ≤ 4.81 pM
koff (mfFXI.mmh (REGN3883) [7]): ≤ 1e-05 s⁻¹
kon (mfFXI.mmh (REGN3883) [7]): 2.08e+06 M⁻¹ s⁻¹
t½ (mfFXI.mmh (REGN3883) [7]): ≥ 19.2 h
Kd (mfFXI.mmh (REGN3883) [8]): 43.5 pM
koff (mfFXI.mmh (REGN3883) [8]): 0.000111 s⁻¹
kon (mfFXI.mmh (REGN3883) [8]): 2.56e+06 M⁻¹ s⁻¹
t½ (mfFXI.mmh (REGN3883) [8]): 1.73 h
Kd [9]: ≤ 4.54 pM
Kd [10]: 3 pM
koff [10]: 9.36e-06 s⁻¹
kon [10]: 3.12e+06 M⁻¹ s⁻¹
t1/2 [10]: 20.6 h
Kd [11]: 10.2 pM
koff [11]: 3.61e-05 s⁻¹
kon [11]: 3.55e+06 M⁻¹ s⁻¹
t1/2 [11]: 5.33 h
Kd (hFXI.mmh (REGN3848) [12]): 8.07 pM
koff (hFXI.mmh (REGN3848) [12]): 2.7e-05 s⁻¹
kon (hFXI.mmh (REGN3848) [12]): 3.34e+06 M⁻¹ s⁻¹
t1/2 (hFXI.mmh (REGN3848) [12]): 7.13 h
Kd (mfFXI.mmh (REGN3883) [13]): 3.73 pM
koff (mfFXI.mmh (REGN3883) [13]): 9.62e-06 s⁻¹
kon (mfFXI.mmh (REGN3883) [13]): 2.58e+06 M⁻¹ s⁻¹
t1/2 (mfFXI.mmh (REGN3883) [13]): 20 h
binding result (mFXI.mmH): no binding (tested: 50 nM)
binding result (rbFXI.mmH): no binding (tested: 250 nM)

B2: REGN9932 (antibody, human IgG4 S228P, kappa, V domains shown)
VH: QVQLVESGGGVVQPGRSLRLSCAASGFTFSNYEMHWVRQTPGKGLEWVALIWYDGSNKYSGDSVKGRFTISRDNSKSTLYLQMNSLTAEDTAVYYCTGITGTEDAFDVWGQGTMVTVSS
VL: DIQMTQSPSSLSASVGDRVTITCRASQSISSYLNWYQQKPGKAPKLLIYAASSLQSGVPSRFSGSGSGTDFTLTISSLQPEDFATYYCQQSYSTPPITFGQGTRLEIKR
notes: also called anti-FXI mAb [REGN9932]
IC50 [M], FXI, 0.13% plasma (chromogenic FXa generation, BIOPHEN Factor XIa kit) [14]: 1.9e-10 M
IC50 [M], FXIa, 0.13% plasma (chromogenic FXa generation, BIOPHEN Factor XIa kit) [15]: > 1e-08 M
Kd [1]: ≤ 119 pM
koff [1]: ≤ 1e-05 s⁻¹
kon [1]: 83800 M⁻¹ s⁻¹
t½ [1]: ≥ 19.2 h
Kd [2]: 36.5 pM
koff [2]: ≤ 1e-05 s⁻¹
kon [2]: 274000 M⁻¹ s⁻¹
t½ [2]: ≥ 19.2 h
Kd (hFXI.mmh (REGN3848) [5]): ≤ 116 pM
koff (hFXI.mmh (REGN3848) [5]): ≤ 1e-05 s⁻¹
kon (hFXI.mmh (REGN3848) [5]): 86200 M⁻¹ s⁻¹
t½ (hFXI.mmh (REGN3848) [5]): ≥ 19.2 h
Kd (hFXI.mmh (REGN3848) [6]): 387 pM
koff (hFXI.mmh (REGN3848) [6]): 8.77e-05 s⁻¹
kon (hFXI.mmh (REGN3848) [6]): 226000 M⁻¹ s⁻¹
t½ (hFXI.mmh (REGN3848) [6]): 2.19 h
Kd (mfFXI.mmh (REGN3883) [7]): ≤ 64.4 pM
koff (mfFXI.mmh (REGN3883) [7]): ≤ 1e-05 s⁻¹
kon (mfFXI.mmh (REGN3883) [7]): 155000 M⁻¹ s⁻¹
t½ (mfFXI.mmh (REGN3883) [7]): ≥ 19.2 h
Kd (mfFXI.mmh (REGN3883) [8]): 268 pM
koff (mfFXI.mmh (REGN3883) [8]): 8.6e-05 s⁻¹
kon (mfFXI.mmh (REGN3883) [8]): 321000 M⁻¹ s⁻¹
t½ (mfFXI.mmh (REGN3883) [8]): 2.24 h
